One series deals with white blood cells. The note with it: mice, about 2 mg/kg dose, 28 days. The protocol:
A group of 6 mice are administered various dosages of the cobalamin-paclitaxel bioconjugate prepared in accordance with Example 1 over a 28 day period. The effects to the viable circulating endothelial cell precursors and white blood cells are measured after 28 days.

The subject of series [1] is bFGF-stimulated formation of new blood vessel in the Matrigel plug. The series can be described thus: Matrigel plug perfusion in vivo assay (anti-angiogenic efficacy). The note with it: mice, Matrigel and bFGF. The text has this: The assay uses Matrigel, a gelatinous protein mixture secreted by mouse tumor cells and marketed by BD Biosciences, to duplicate tissue environments. Matrigel is liquid at room temperature, but when injected into the animal, forms a solid plug. If a growth vessel stimulant such as basic fibroblast growth factor (bFGF) is mixed with the Matrigel, the bFGF stimulates the formation of new blood vessel in the plug, which can be monitored in the animal via fluorescence techniques. In the current study, Matrigel is injected either alone or with bFGF subcutaneously into mice.

As to `CC(=O)O[C@H]1C(=O)[C@@]2(C)C([C@H](OC(=O)c3ccccc3)[C@]3(O)C[C@H](OC(=O)[C@H](OC(=O)C[NH+](C)CC[CH2][Co+][N]4/C5=C(/C)C6=N/C(=C\C7=NC(=C(/C)C8=NC(C(C)C4C(CC(N)=O)C5(C)CCC(=O)NCC(C)OP(=O)([O-])OC4C(CO)OC(n5cnc9cc(C)c(C)cc95)C4O)C(C)(CC(N)=O)C8CCC(N)=O)/C(C)(CC(N)=O)C7CCC(N)=O)C(C)(C)C6CCC(N)=O)[C@@H](NC(=O)c4ccccc4)c4ccccc4)C(C)=C1C3(C)C)[C@]1(OC(C)=O)COC1C[C@@H]2O.[Cl-]` (some centres unmarked) [cobalamin-paclitaxel bioconjugate, Cbl—(CH2)3N(CH3)CH2COO-2′-PTX], the “toxicity by white blood cell count” value in the series with white blood cells is on record as “no neutropenia”. In addition, in series [1], the “anti-angiogenic performance compared with DC101” value is given as “better performance than that of DC101”.

The values above are taken from patent US20080233135A1, “Cobalamin taxane bioconjugates” (priority 2007, published 2008).
